These are literature values, as cited in publication PMC3791513.

One may read the Kd as the concentration at which binding is half-saturated.

The data set addresses GPR77 (Homo sapiens) (UniProt Q9P296).

GPR77 (Homo sapiens), sequence (Q9P296 whole entry): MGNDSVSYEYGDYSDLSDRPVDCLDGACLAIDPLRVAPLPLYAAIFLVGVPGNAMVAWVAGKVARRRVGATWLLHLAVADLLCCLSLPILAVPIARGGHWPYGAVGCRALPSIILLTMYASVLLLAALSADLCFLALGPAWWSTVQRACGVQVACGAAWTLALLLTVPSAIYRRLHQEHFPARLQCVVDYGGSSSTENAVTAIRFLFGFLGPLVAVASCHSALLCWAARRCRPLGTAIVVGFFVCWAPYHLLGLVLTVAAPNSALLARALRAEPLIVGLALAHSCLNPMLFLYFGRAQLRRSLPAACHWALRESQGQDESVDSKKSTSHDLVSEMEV
complement anaphylatoxin C5a C5a, sequence (P01031 675-754): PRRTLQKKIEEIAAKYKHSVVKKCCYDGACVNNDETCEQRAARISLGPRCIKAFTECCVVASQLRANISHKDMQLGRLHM

In the case of “complement anaphylatoxin C5a C5a (from UniProt P01031)”, the Kd is 2.5 nM.
